Reference: article doi:10.1101/2024.06.02.596995

Columns and labels:
[1] = biological target: Armitage ΔN34-Flag (D. melanogaster) (UniProt Q6J5K9); assay: co-IP
[2] = biological target: Armitage KEE-Flag (D. melanogaster) (UniProt Q6J5K9); assay: co-IP

binding efficiency relative to WT Armi [1]: 20%
binding efficiency relative to WT Armi [2]: 34%
Substance: Daedalus (Daed), endogenous in OSCs (natural protein)
